Measurements reported in patent US20240398963A1 (priority 2021, published 2024).

Assay type: physicochemical
Details: 10 mM PBS buffer (pH=7.4), 37° C., 100 rpm shaker; free drug by HPLC, average release per day
Protocol: The drug release and stability experiments were run using the test compounds. About 2.5±1.0 mg/mL (with regard to conjugate) solution of each test compound was prepared with 10 mM PBS buffer (pH=7.4) in Millipore Amicon® Ultra-0.5 ml 30 k Ultrafiltration centrifuge tube. The solution was kept swelling for 1 h at room temperature and then placed in a shaker at 100 rpm, 37° C. for continuous experiment. At the same time point of each day, samples were centrifuged at 10000 rpm for 1 h. The aliquot was transferred to HPLC vial for analysis. An 0.4 mL of 10 mM PBS buffer was added into the centrifuge tube and continue the experiment.
For the HPLC analysis at each time point, the peak areas of all relevant peaks from the chromatograms were retrieved and the concentration of free drug was calculated. Average release of free drug was calculated based on the sum of free drug and numbers of experiment days. The computing equation is as below.
The sample degradation rate was calculated based on the concentration and degree of substitution (NMR) for conjugated drug with regard to the initial starting point of the experiment (at t=0). The computing equation is as below.

Row | Substance | Release rate [%/day]
1 | Conjugate of HA and 2-((6αS,6βR,7S,8αS,8βS,11αR,12αS,12βS)-6β-fluoro-7-hydroxy-6α,8α,10,10-tetramethyl-4-oxo-1,2,4,6α,6β,7,8,8α,11α,12,12α,12β-dodecahydro-8βH-naphtho[2′,1′:4,5]indeno[1,2-d][1,3]dioxol-8β-yl)-2-oxoethyl glycylglycylglycinate [Example 19] | 17.57
2 | Conjugate of HA and 2-((8S,9R,10S,11S,13S,14S,16R,17R)-9-fluoro-11,17-dihydroxy-10,13,16-trimethyl-3-oxo-6,7,8,9,10,11,12,13,14,15,16,17-dodecahydro-3H-cyclopenta[a]phenanthren-17-yl)-2-oxoethyl 4-aminobutanoate [Example 44] | 1.12
3 | Conjugate of HA and 2-((8S,9R,10S,11S,13S,14S,16R,17R)-9-fluoro-11,17-dihydroxy-10,13,16-trimethyl-3-oxo-6,7,8,9,10,11,12,13,14,15,16,17-dodecahydro-3H-cyclopenta[a]phenanthren-17-yl)-2-oxoethyl 5-aminopentanoate [Example 79] | 4.42
4 | Conjugate of HA and 2-((8S,9R,10S,11S,13S,14S,16R,17R)-9-fluoro-11,17-dihydroxy-10,13,16-trimethyl-3-oxo-6,7,8,9,10,11,12,13,14,15,16,17-dodecahydro-3H-cyclopenta[a]phenanthren-17-yl)-2-oxoethyl 6-aminohexanoate [Example 83] | 2.15
5 | Conjugate of HA and 2-((8S,9R,10S,11S,13S,14S,16S,17R)-9-fluoro-11,17-dihydroxy-10,13,16-trimethyl-3-oxo-6,7,8,9,10,11,12,13,14,15,16,17-dodecahydro-3H-cyclopenta[a]phenanthren-17-yl)-2-oxoethyl 4-aminobutanoate [Example 46] | 2.95
6 | Conjugate of HA and 2-((8S,9R,10S,11S,13S,14S,16S,17R)-9-fluoro-11,17-dihydroxy-10,13,16-trimethyl-3-oxo-6,7,8,9,10,11,12,13,14,15,16,17-dodecahydro-3H-cyclopenta[a]phenanthren-17-yl)-2-oxoethyl 6-aminohexanoate [Example 84] | 3.73
7 | Conjugate of HA and 2-((8S,9S,10R,11S,13S,14S,17R)-11,17-dihydroxy-10,13-dimethyl-3-oxo-2,3,6,7,8,9,10,11,12,13,14,15,16,17-tetradecahydro-1H-cyclopenta[a]phenanthren-17-yl)-2-oxoethyl 4-aminobutanoate [Example 38] | 1.71
8 | Conjugate of HA and 2-((8S,9S,10R,11S,13S,14S,17R)-11,17-dihydroxy-10,13-dimethyl-3-oxo-2,3,6,7,8,9,10,11,12,13,14,15,16,17-tetradecahydro-1H-cyclopenta[a]phenanthren-17-yl)-2-oxoethyl 5-aminopentanoate [Example 76] | 2.66
9 | Conjugate of HA and 2-((8S,9S,10R,11S,13S,14S,17R)-11,17-dihydroxy-10,13-dimethyl-3-oxo-2,3,6,7,8,9,10,11,12,13,14,15,16,17-tetradecahydro-1H-cyclopenta[a]phenanthren-17-yl)-2-oxoethyl 6-aminohexanoate [Example 93] | 7.67
10 | Conjugate of HA and 2-((8S,9S,10R,11S,13S,14S,17R)-11,17-dihydroxy-10,13-dimethyl-3-oxo-6,7,8,9,10,11,12,13,14,15,16,17-dodecahydro-3H-cyclopenta[a]phenanthren-17-yl)-2-oxoethyl 4-aminobutanoate [Example 36] | 2.89
11 | Conjugate of HA and 2-((8S,9S,10R,11S,13S,14S,17R)-11,17-dihydroxy-10,13-dimethyl-3-oxo-6,7,8,9,10,11,12,13,14,15,16,17-dodecahydro-3H-cyclopenta[a]phenanthren-17-yl)-2-oxoethyl 6-aminohexanoate [Example 81] | 1.71
12 | Conjugate of HA and 2-((8S,9S,10R,11S,13S,14S,17R)-11,17-dihydroxy-10,13-dimethyl-3-oxo-6,7,8,9,10,11,12,13,14,15,16,17-dodecahydro-3H-cyclopenta[a]phenanthren-17-yl)-2-oxoethyl-5-aminopentanoate [Example 75] | 4.80
13 | Conjugate of HA and 2-((8S,9S,10R,13S,14S,17R)-17-hydroxy-10,13-dimethyl-3,11-dioxo-2,3,6,7,8,9,10,11,12,13,14,15,16,17-tetradecahydro-1H-cyclopenta[a]phenanthren-17-yl)-2-oxoethyl 4-aminobutanoate [Example 40] | 2.49
14 | Conjugate of HA and 2-((8S,9S,10R,13S,14S,17R)-17-hydroxy-10,13-dimethyl-3,11-dioxo-2,3,6,7,8,9,10,11,12,13,14,15,16,17-tetradecahydro-1H-cyclopenta[a]phenanthren-17-yl)-2-oxoethyl 5-aminopentanoate [Example 77] | 4.81
15 | Conjugate of HA and 2-((8S,9S,10R,13S,14S,17R)-17-hydroxy-10,13-dimethyl-3,11-dioxo-2,3,6,7,8,9,10,11,12,13,14,15,16,17-tetradecahydro-1H-cyclopenta[a]phenanthren-17-yl)-2-oxoethyl 6-aminohexanoate [Example 94] | 2.85
16 | Conjugate of HA and 2-((8S,9S,10R,13S,14S,17R)-17-hydroxy-10,13-dimethyl-3,11-dioxo-6,7,8,9,10,11,12,13,14,15,16,17-dodecahydro-3H-cyclopenta[a]phenanthren-17-yl)-2-oxoethyl 5-aminopentanoate [Example 74] | 4.06
17 | Conjugate of HA and 2-((8S,9S,10R,13S,14S,17R)-17-hydroxy-10,13-dimethyl-3,11-dioxo-6,7,8,9,10,11,12,13,14,15,16,17-dodecahydro-3H-cyclopenta[a]phenanthren-17-yl)-2-oxoethyl 6-aminohexanoate [Example 92] | 8.21
18 | Conjugate of HA and 4-aminobutyl (2-((6S,8S,9S,10R,11S,13S,14S,17R)-11,17-dihydroxy-6,10,13-trimethyl-3-oxo-6,7,8,9,10,11,12,13,14,15,16,17-dodecahydro-3H-cyclopenta[a]phenanthren-17-yl)-2-oxoethyl) carbonate [Example 68] | 8.02
19 | Conjugate of HA and 4-aminobutyl (2-((8S,9R,10S,11S,13S,14S,16R,17R)-9-fluoro-11,17-dihydroxy-10,13,16-trimethyl-3-oxo-6,7,8,9,10,11,12,13,14,15,16,17-dodecahydro-3H-cyclopenta[a]phenanthren-17-yl)-2-oxoethyl) carbonate [Example 70] | 3.49
20 | Conjugate of HA and 4-aminobutyl (2-((8S,9R,10S,11S,13S,14S,16S,17R)-9-fluoro-11,17-dihydroxy-10,13,16-trimethyl-3-oxo-6,7,8,9,10,11,12,13,14,15,16,17-dodecahydro-3H-cyclopenta[a]phenanthren-17-yl)-2-oxoethyl) carbonate [Example 72] | 7.86
21 | Conjugate of HA and 4-aminobutyl (2-((8S,9S,10R,11S,13S,14S,17R)-11,17-dihydroxy-10,13-dimethyl-3-oxo-2,3,6,7,8,9,10,11,12,13,14,15,16,17-tetradecahydro-1H-cyclopenta[a]phenanthren-17-yl)-2-oxoethyl) carbonate [Example 64] | 7.61
22 | Conjugate of HA and 4-aminobutyl (2-((8S,9S,10R,11S,13S,14S,17R)-11,17-dihydroxy-10,13-dimethyl-3-oxo-6,7,8,9,10,11,12,13,14,15,16,17-dodecahydro-3H-cyclopenta[a]phenanthren-17-yl)-2-oxoethyl) carbonate [Example 62] | 0.14
23 | Conjugate of HA and 4-aminobutyl (2-((8S,9S,10R,13S,14S,17R)-17-hydroxy-10,13-dimethyl-3,11-dioxo-2,3,6,7,8,9,10,11,12,13,14,15,16,17-tetradecahydro-1H-cyclopenta[a]phenanthren-17-yl)-2-oxoethyl) carbonate [Example 66] | 11.18
24 | Conjugate of HA and 4-aminobutyl (2-((8S,9S,10R,13S,14S,17R)-17-hydroxy-10,13-dimethyl-3,11-dioxo-6,7,8,9,10,11,12,13,14,15,16,17-dodecahydro-3H-cyclopenta[a]phenanthren-17-yl)-2-oxoethyl) carbonate [Example 60] | 15.04
25 | Conjugate of HA and 5-aminopentyl (2-((6S,8S,9S,10R,11S,13S,14S,17R)-11,17-dihydroxy-6,10,13-trimethyl-3-oxo-6,7,8,9,10,11,12,13,14,15,16,17-dodecahydro-3H-cyclopenta[a]phenanthren-17-yl)-2-oxoethyl) carbonate [Example 86] | 6.93
26 | Conjugate of HA and 5-aminopentyl (2-((8S,9R,10S,11S,13S,14S,16R,17R)-9-fluoro-11,17-dihydroxy-10,13,16-trimethyl-3-oxo-6,7,8,9,10,11,12,13,14,15,16,17-dodecahydro-3H-cyclopenta[a]phenanthren-17-yl)-2-oxoethyl) carbonate [Example 87] | 6.96
